One substance from publication PMC12087824 can be followed below.

For orientation: Kd means a measure of binding affinity in units of concentration.

For assay [1], the target named is human IL-2 receptor chain beta (IL-2Rβ, CD122) (human) (UniProt P14784).
Assay [2] shares this target. Briefly: BLI; human IL-2Rβ immobilised; Neo-2/15 WT at 20–2.5 nM.

Chain of human IL-2 receptor chain beta (IL-2Rβ, CD122) (human) (P14784 27-551): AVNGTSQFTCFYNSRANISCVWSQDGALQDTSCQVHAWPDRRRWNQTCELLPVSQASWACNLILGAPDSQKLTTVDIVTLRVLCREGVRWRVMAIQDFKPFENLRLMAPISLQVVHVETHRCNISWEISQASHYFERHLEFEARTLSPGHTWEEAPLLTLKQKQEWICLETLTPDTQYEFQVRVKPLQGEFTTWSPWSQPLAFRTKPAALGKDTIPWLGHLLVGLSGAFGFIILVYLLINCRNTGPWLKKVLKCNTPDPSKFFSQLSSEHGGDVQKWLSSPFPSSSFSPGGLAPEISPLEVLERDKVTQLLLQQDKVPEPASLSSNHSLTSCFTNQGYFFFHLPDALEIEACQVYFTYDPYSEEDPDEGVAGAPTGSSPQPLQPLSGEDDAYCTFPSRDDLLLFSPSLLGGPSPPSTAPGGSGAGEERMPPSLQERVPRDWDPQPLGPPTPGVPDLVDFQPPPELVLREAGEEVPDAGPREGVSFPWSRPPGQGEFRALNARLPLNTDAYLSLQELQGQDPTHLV

For “neoleukin-2/15 (Neo-2/15) WT (designed binder)”, the EC50 of STAT5 phosphorylation (pSTAT5) in purified splenic T cells of balb-c mice, ex vivo, serial dilutions in assay [1] came out at 4.1 pM. The Kd in assay [2] came to 2.5 nM.
